Patent US20070172423A1, “Composition and method for modulating vasculogenesis for angiogenesis” (priority 1998, published 2007)

Tests used:
[1] = tested on: PDGFR-α; assay: PDGFR-α activation in cultured hSMC and NIH-3T3 cells (immunoprecipitation, pTyr blot); assay type: cell-based; settings: treated cultured hSMC and NIH-3T3 fibroblast cells
Procedure: RNase protection analysis (RPA) was performed according to the manufacturer's protocol (Ambion) to investigate gene expression at mRNA level. Riboprobes were prepared using RNA polymerase (Promega) and ^32P-UTP (Amersham). Mouse β-actin cDNA (250 bp, Ambion) was used as an internal control. For Western blot assay, subconfluent cells were rinsed with cold PBS supplemented with 5 µg/ml of antiprotease cocktail, lysed in RIPA buffer and analyzed on 10% acrylamide SDS PAGE in reducing condition. Two antibodies to PDGFR-α (rabbit polyclonal antibody, dilution: 1/500, Santa Cruz, sc431; and monoclonal peroxidase-labeled anti-rabbit antibody, dilution: 1/2500, Sigma, A-2074) were used for PDGFR-α protein detection. Membranes were developed using the Supersignal System (Pierce). […] The precipitants were analysed on SDS-PAGE, and immunoblotted using a monoclonal anti-phosphotyrosine antibody (Santa Cruz).
The mitogenic and chemotactic effect of PDGF-CC was then tested on SMCs and perivascular fibroblast cells, and the effect of PDGF-CC was compared to that of VEGF and PDGF-AA in both cultured cells and the aortic ring assay (Blacher et al., Angiogenesis, 2001 4:133-42). […] In the aortic ring assay, we quantified the growth and emigration of perivascular fibroblasts from the intact vessel using computer-assisted image analysis after treatment with VEGF and different PDGFs at different concentrations. […]

[2] = target: PDGF beta receptors (Homo sapiens, UniProt P09619); assay: Competition with 125I-PDGF-BB for binding to PAE-1 cells expressing PDGF beta-receptor; design: expressed in transfected cells; settings: 5 ng/ml 125I-PDGF-BB tracer, on ice 90 minutes
Chain of PDGF beta receptors (P09619 33-1106): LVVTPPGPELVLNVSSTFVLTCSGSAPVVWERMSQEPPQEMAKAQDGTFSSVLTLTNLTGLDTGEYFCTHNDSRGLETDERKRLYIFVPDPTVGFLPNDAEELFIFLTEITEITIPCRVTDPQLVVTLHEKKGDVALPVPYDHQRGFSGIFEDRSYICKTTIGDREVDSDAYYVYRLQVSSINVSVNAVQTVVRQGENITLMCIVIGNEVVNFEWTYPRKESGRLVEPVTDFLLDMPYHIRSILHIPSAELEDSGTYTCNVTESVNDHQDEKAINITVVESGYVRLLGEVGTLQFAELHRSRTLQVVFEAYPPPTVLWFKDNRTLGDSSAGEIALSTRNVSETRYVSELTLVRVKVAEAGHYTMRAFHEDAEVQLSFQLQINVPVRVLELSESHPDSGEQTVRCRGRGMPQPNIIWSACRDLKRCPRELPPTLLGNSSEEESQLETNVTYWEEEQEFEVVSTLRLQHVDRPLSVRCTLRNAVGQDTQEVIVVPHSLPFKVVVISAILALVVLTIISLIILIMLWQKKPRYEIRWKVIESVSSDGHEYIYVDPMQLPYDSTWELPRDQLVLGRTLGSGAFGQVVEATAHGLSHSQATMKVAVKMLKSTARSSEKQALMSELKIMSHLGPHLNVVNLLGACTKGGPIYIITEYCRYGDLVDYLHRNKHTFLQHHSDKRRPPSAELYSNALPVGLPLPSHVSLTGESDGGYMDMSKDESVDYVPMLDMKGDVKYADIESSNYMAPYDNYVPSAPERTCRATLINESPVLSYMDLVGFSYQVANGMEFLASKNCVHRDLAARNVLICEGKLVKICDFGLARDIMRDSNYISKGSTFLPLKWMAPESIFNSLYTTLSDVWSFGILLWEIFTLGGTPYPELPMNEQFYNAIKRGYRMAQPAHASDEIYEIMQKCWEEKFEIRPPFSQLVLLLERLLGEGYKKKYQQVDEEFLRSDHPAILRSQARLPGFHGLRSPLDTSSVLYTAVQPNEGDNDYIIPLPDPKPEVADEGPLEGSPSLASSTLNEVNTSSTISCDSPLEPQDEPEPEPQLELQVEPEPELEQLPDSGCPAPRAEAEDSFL
Procedure: Next, full length and truncated PDGF-C were tested for their capacity to bind to human PDGF receptors alpha and beta by analyzing their abilities to compete with PDGF-BB for binding to PDGF receptors. The binding experiments were performed on porcine aortic endothelial-1 (PAE-1) cells stably expressing the human PDGF receptors alpha and beta (Eriksson et al., EMBO J, 1992, 11, 543-550). Binding experiments were performed essentially as in Heldin et al. (EMBO J, 1988, 7:1387-1393). Different concentrations of human full-length and truncated PDGF-C, or human PDGF-BB were mixed with 5 ng/ml of ^125I-PDGF-BB in binding buffer (PBS containing 1 mg/ml of bovine serum albumin). Aliquots were incubated with the receptor expressing PAE-1 cells plated in 24-well culture dishes on ice for 90 minutes. After three washes with binding buffer, cell-bound 125]-PDGF-BB was extracted by lysis of cells in 20 mM Tris-HCl, pH 7.5, 10% glycerol, 1% Triton X-100. The amount of cell bound radioactivity was determined in a gamma-counter. A standard curve for the binding of ^125I-labeled PDGF BB homodimers to PAE-1 cells expressing PDGF alpha-receptor is shown in FIG. 18.

[3] = target: T1, human VEGFR-1 (Homo sapiens, UniProt P17948); assay: Binding to soluble VEGFR-1-Ig fusion protein; settings: 35S-labeled protein in conditioned medium from 293 cells, precipitation with Ig-fusion protein
T1 construct: soluble Ig-fusion proteins containing the extracellular domains of human VEGFR-1, VEGFR-2 and VEGFR-3; made in house; host or cells: human 293 EBNA cells, transient expression
T1 sequence (P17948 27-758 limits assumed): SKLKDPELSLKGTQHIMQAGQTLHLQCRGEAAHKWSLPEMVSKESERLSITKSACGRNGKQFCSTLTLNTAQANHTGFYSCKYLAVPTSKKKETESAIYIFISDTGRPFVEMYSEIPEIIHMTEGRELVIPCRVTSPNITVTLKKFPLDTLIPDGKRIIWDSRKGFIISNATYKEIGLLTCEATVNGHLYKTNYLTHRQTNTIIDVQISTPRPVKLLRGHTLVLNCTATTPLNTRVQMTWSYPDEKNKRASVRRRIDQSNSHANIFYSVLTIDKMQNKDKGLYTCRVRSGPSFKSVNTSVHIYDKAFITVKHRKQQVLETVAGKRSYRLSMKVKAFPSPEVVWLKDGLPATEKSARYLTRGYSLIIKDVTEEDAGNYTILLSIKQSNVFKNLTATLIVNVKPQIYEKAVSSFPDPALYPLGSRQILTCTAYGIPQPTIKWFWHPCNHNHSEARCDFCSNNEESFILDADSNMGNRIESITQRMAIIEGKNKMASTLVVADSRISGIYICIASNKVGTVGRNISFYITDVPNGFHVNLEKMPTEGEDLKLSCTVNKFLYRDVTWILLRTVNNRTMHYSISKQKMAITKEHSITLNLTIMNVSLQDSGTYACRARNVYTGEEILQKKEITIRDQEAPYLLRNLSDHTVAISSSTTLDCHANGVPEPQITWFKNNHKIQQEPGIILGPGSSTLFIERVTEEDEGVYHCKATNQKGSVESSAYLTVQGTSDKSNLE
Procedure: To assess the interactions between full length and truncated PDGF-C and the VEGF receptors, full length and truncated PDGF-C were tested for their capacity to bind to soluble Ig-fusion proteins containing the extracellular domains of human VEGFR-1, VEGFR-2 and VEGFR-3 (Olofsson et al., Proc. Natl. Acad. Sci. USA, 1998 95:11709-11714). The fusion proteins, designated VEGFR-1-Ig, VEGFR-2-Ig and VEGFR-3-Ig, were transiently expressed in human 293 EBNA cells. All Ig fusion proteins were human VEGFRs. Cells were incubated for 24 hours after transfection, washed with Dulbecco's Modified Eagle Medium (DMEM) containing 0.2% bovine serum albumin and starved for 24 hours. The fusion proteins were then precipitated from the clarified conditioned medium using protein A-Sepharose beads (Pharmacia). The beads were combined with 100 microliters of 10× binding buffer (5% bovine serum albumin, 0.2% Tween 20 and 10 µg/ml heparin) and 900 microliter of conditioned medium from 293 cells that had been transfected with mammalian expression plasmids encoding full length or truncated PDGF-C or control vector, then metabolically labeled with ^35S-cysteine and methionine (Promix, Amersham) for 4 to 6 hours. […] Labeled proteins that were bound to the Ig-fusion proteins were analyzed by SDS-PAGE under reducing conditions. Radiolabeled proteins were detected using a phosphorimager analyzer.

B1: PDGF-CC: recombinant human PDGF-CC core domain homodimer, residues 230-345 of full-length PDGF-C (SEQ ID NO:40), produced in baculovirus infected insect cells (protein)
chain: GRKSRVVDLNLLTEEVRLYSCTPRNFSVSIREELKRTDTIFWPGCLLVKRCGGNCACCLHNCNECQCVPSKVTKKYHEVLQLRPKTGVRGLHKSLTDVALEHHEECDCVCRGSTGG
modifications: homodimer; PDGF-C core domain
[1]
  PDGFR-α activation (pTyr): highly activated
[2]
  competition for binding to the PDGF beta-receptor: failed to compete
[3]
  interaction with VEGFR-1-Ig: failed to show any interaction
